Assay results taken from patent US12466890.

Target: TL1A monomer mutant
Assay: method not stated (row 'Binds monomer mutant')

Kd: 0.13 nM
Substance: Comparator antibody 2 (MK-7240)
